Reference: paper PMC4216079, “Phenotypic and Enzymatic Comparative Analysis of the KPC Variants, KPC-2 and Its Recently Discovered Variant KPC-15” (PLoS ONE, 2014)

How the values were obtained:
[1] = system: CC(C)(O/N=C(\C(=O)N[C@@H]1C(=O)N2C(C(=O)[O-])=C(C[n+]3ccccc3)CS[C@H]12)c1csc(N)n1)C(=O)O; test: purified protein; conditions: 10 mM PBS, pH 7.4, 25°C, 10 nM enzyme
[2] = system: CO/N=C(\C(=O)N[C@@H]1C(=O)N2C(C(=O)O)=C(COC(C)=O)CS[C@H]12)c1csc(N)n1; test: purified protein; conditions: 10 mM PBS, pH 7.4, 25°C, 10 nM enzyme
[3] = system: C[C@@H](O)[C@H]1C(=O)N2C(C(=O)O)=C(SCCN=CN)C[C@H]12; test: purified protein; conditions: 10 mM PBS, pH 7.4, 25°C, 10 nM enzyme
[4] = system: Cc1nnc(SCC2=C(C(=O)O)N3C(=O)[C@@H](NC(=O)Cn4cnnn4)[C@H]3SC2)s1; test: purified protein; conditions: 10 mM PBS, pH 7.4, 25°C, 10 nM enzyme
[5] = system: C[C@@H](O)[C@H]1C(=O)N2C(C(=O)O)=C(S[C@@H]3CN[C@H](C(=O)N(C)C)C3)[C@H](C)[C@H]12; test: purified protein; conditions: 10 mM PBS, pH 7.4, 25°C, 10 nM enzyme
KPC-2 = KPC-2 (Klebsiella pneumoniae, UniProt Q9F663); test: steady-state hydrolysis, diode array spectrophotometer; conditions: 10 mM PBS, pH 7.4, 25°C; 10 nM enzyme

Compound | Km [1] [µM] | kcat [1] [s⁻¹] | kcat/Km [1] [M⁻¹ s⁻¹] | Km [2] [µM] | kcat [2] [s⁻¹] | Km [3] [µM] | kcat [3] [s⁻¹] | kcat/Km [3] [M⁻¹ s⁻¹] | Km [4] [µM] | kcat [4] [s⁻¹] | kcat/Km [4] [M⁻¹ s⁻¹] | Km [5] [µM] | kcat [5] [s⁻¹] | kcat/Km [5] [M⁻¹ s⁻¹] | Km (KPC-2) [µM]
KPC-2 (Klebsiella pneumoniae) | 217 ± 6 | 0.59 ± 0.83 | 2700 ± 560 | 124 ± 6 | 52 ± 6 | 21 ± 2 | 20 ± 1 | 950000 ± 650000 | 16 ± 1 | 44 ± 2 | 2.8e+06 ± 1e+06 | 16.2 ± 3.1 | 4.1 ± 0.99 | 250000 ± 61000 | –
O=C(Cc1cccs1)N[C@@H]1C(=O)N2C(C(=O)O)=C(/C=C/c3ccc([N+](=O)[O-])cc3[N+](=O)[O-])CS[C@H]12 [nitrocefin] | – | – | – | – | – | – | – | – | – | – | – | – | – | – | 6.5 ± 2.4
